This is an account of results in paper PMC6697693.

This assay addresses Δ258-UNC-23, stable fragment of UNC-23, fluorescently labelled (C. elegans).

Sequence of Δ258-UNC-23, stable fragment of UNC-23, fluorescently labelled (C. elegans) (main, as listed by the source mutant): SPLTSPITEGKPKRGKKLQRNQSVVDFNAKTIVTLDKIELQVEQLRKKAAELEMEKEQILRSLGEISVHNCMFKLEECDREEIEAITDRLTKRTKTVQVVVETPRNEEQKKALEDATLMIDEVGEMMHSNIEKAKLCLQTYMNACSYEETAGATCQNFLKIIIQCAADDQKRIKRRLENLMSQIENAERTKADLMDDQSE
Sequence of wild type Hsc70 (nematode Hsc70, HSP-1) (P09446 whole entry): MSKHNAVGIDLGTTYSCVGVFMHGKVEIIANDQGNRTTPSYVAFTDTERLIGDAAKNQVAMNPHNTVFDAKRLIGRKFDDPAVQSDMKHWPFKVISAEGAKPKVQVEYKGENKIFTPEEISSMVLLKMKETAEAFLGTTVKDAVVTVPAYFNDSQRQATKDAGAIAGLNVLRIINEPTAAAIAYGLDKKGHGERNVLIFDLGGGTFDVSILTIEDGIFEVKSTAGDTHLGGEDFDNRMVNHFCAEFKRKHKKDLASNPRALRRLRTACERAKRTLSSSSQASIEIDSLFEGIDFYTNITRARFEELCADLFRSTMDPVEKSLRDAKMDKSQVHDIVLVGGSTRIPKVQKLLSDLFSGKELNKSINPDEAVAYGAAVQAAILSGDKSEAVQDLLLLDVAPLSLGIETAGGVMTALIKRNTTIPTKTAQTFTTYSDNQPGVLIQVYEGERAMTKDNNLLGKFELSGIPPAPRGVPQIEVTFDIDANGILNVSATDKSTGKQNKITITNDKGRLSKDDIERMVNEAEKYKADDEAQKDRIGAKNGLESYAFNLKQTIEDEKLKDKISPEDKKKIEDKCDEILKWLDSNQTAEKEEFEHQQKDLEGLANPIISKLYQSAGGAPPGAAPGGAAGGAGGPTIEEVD

“Hsc70 A379V (from UniProt P09446 1-640) (natural protein)”: the ATPase stimulation (stimulated minus unstimulated turnover), 3 µM Hsc70 A379V with 3 µM UNC-23 was determined as 0.02 min⁻¹. In the case of “Hsc70 D233N (from UniProt P09446 1-640) (natural protein)”, the ATPase stimulation (stimulated minus unstimulated turnover), 3 µM Hsc70 D233N with 3 µM UNC-23 was found to be 0.12 min⁻¹. Take “Hsc70 D384N (from UniProt P09446 1-640) (natural protein)”: the ATPase stimulation (stimulated minus unstimulated turnover), 3 µM Hsc70 D384N with 3 µM UNC-23 is 0.24 min⁻¹. On to “wild type Hsc70 (nematode Hsc70, HSP-1) (from UniProt P09446 1-640) (natural protein)”, for which the ATPase stimulation (stimulated minus unstimulated turnover), 3 µM Hsc70 with 3 µM UNC-23 turned out to be 0.18 min⁻¹.
